Data published in paper PMC5376975, “Structural studies of RFCC tf18 reveal a novel chromatin recruitment role for Dcc1”.

T1: Dcc1 triple mutant (Saccharomyces cerevisiae, UniProt P25559 90-380, K364A;R367A;R380A)
T1 sequence: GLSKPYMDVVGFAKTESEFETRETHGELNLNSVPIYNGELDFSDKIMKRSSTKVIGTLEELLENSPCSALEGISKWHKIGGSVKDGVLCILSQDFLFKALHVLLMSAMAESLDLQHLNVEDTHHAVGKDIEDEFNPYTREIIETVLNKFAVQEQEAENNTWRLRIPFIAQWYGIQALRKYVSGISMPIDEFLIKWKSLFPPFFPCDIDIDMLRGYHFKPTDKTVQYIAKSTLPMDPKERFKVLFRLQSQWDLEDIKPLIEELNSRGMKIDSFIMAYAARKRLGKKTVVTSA

T2: Dcc1 dWH3 (Saccharomyces cerevisiae, UniProt P25559 90-318, del319-380)
T2 sequence: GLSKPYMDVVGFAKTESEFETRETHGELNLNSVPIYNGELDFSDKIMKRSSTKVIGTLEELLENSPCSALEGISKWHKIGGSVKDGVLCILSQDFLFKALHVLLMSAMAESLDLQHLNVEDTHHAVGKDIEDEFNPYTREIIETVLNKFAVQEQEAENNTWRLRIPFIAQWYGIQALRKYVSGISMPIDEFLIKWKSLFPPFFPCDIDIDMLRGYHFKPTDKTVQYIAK

B1: 22-mer dsDNA (dsDNA)
DNA 1: TCTCCACAGGAAACGGAGGGGT
DNA 2: ACCCCTCCGTTTCCTGTGGAGA

Assays:
[1] = molecular target: T1, Dcc1 triple mutant; test: EMSA; EMSA, 6% native gel in 0.5x TBE, 4 C, DNA 1 uM unless stated; binding buffer, salt and pH not stated (protein storage 10 mM Tris pH 7.5, 150 mM NaCl, 0.5 mM TCEP for the complex); settings: protein: recombinant
[2] = molecular target: T2, Dcc1 dWH3; test: EMSA; also none at reduced DNA, overexposed gel; EMSA, 6% native gel in 0.5x TBE, 4 C, DNA 1 uM unless stated; binding buffer, salt and pH not stated (protein storage 10 mM Tris pH 7.5, 150 mM NaCl, 0.5 mM TCEP for the complex); settings: protein: recombinant; label: 5' 6-FAM on sense strand

Binder	binding result ([1]; label: 5' 6-FAM on sense strand)	binding result [2]	binding result ([1]; label: 5' 6-FAM)
B1	no binding	no binding	–
TTTTTTTTTTTTTTTTTTTTTTTTT (ssDNA) [25-mer oligo d(T)]	–	–	no binding
